Data published in the DeepSol protein solubility set.

Assay: soluble on expression in E. coli; label from the status in PepcDB or PDB records

Sequence	soluble on expression in E. coli
MVVKEKVVNEMQEVKEMIDTLVNNGRKALQALESFTQEQIDNIVHEMALAGVDQHMPLAKLAVEETGRGVYEDKCIKNIFATEYIWHSIKKDKTVGIIHEDPHEEIIEIAEPVGVVAGVTPVTNPTSTTMFKALIAIKTRNPIIFAFHPSAQNCSVAAAKTVYDAAVKAGAPKHCIQWIEKPSVEATKQLMNHEGVALVLATGGAGMVKSAYSTGKPALGVGPGNVPCYIEKSAHIKRAVNDLILSKTFDNGMICASEQAIIVDKEIYDDVKTEMITNDCYFVTEEERRKLEKLVINENTCAVNSDIVGKSAQYIAELVGITVPKNTKMLVAEIQGIGAAYPLSREKLSPVLACVKANSLEEGFTYCEEMLNLGGLGHSAVIHSVNKEVQKQFGLRMKACRLIVNAPSSQGGIGDIYNGFIPSLTLGCGSYGKNSVSQNVTATHLLNIKRLANRKKNMQWFKLPPKIYFEKHATAYLANMPNISRAFIVTDPGMVEHGYVDTVAHYLRKHANDVKVEVFFEVEPDPSDETVFKGAEMMRSFQPDVIIALGGGSAMDAAKGMWLFYEYPETTFYGIKQKFLDIRKRTCKYPELGSKAQFVAIPTTSGTGSEVTPFAVITDKKNNIKYPLADYELTPDVAIVDPQFVMTVPPHVTADTGMDVLTHAIEAYVSVLANDYTDGLALKAIDLVFKYLPRAFKDGHDEEAREKMHNASAIAGMAFANAFLGINHSLAHKIGPEFHIPHGRANAILMPHVIRYNAIKPRKHALFPKYEHFVADERYAHIARMLGLPASSVAEGVESLDKAIIDLGKSLNINMSIAGQGVAKDQFEEVVGLLAERAFEDQCTTANPKLPLISELKEIYMKAYKGE	not soluble
MVVYDCLTDEDFLQKSEHGIGKKAIYYFYGERCPSCESIKPLFDDLCKKYEKTALVYTYPCYNDDQLTGDAFAVNAVPTFVVMNNGEEVTRHVGAEAEKVQELFEKYAV	not soluble
MVWDVETAKRFLEVIRNETIYYPVLIALHTGMRAGEIVSLKWYDVNFEARIISVVKSVRNNRGLKTSDVKTKTSKRSVYINDVLFSELKNLYETIKPKPDDFVCPRLPTGNLTVGYLSKRFKLLVKRYNFPVIRFHDLRHTFATLMLSLGVNTKIVAEILGHSDIKLTADTYSHVLPTMQESAMKEFSKLWKLEHHHHHH	soluble
MVWSAFLHFYQIGNSGSNAYYTAAAKSMAASWKAFFFAALDPAGFITVDKPPVALWLQALSVKVFGVSDFSVLLPEALAADCIRGRAVWFACAAGVLVVDARVGRDKQHDSVCRTGFASGRSGHAGCWDAGGARWALAGRAKHRAAEDGNRLRDNSSLAALVVYLEQHAGKAKYLAATIRATEAAEMMLHTDRAVMAMGGFGGTDPVLTPEKLEQMAQNGEVKYFLLSGEDRGNNELVQWIQTHCKEVPSSQWGGGQSAAIGGMGRGGMTLYVYNG	not soluble
MVYDLIVIGGGSGGMAAARRAARHNAKVALVEKSRLGGTCVNVGCVPKKIMFNAASVHDILENSRHYGFDTKFSFNLPLLVERRDKYIQRLNNIYRQNLSKDKVDLYEGTASFLSENRILIKGTKDNNNKDNGPLNEEILEGRNILIAVGNKPVFPPVKGIENTISSDEFFNIKESKKIGIVGSGYIAVELINVIKRLGIDSYIFARGNRILRKFDESVINVLENDMKKNNINIVTFADVVEIKKVSDKNLSIHLSDGRIYEHFDHVIYCVGRSPDTENLKLEKLNVETNNNYIVVDENQRTSVNNIYAVGDCCMVKKSKEIEDLNLLKLYNEERYLNKKENVTEDIFYNVQLTPVAINAGRLLADRLFLKKTRKTNYKLIPTVIFSHPPIGTIGLSEEAAIQIYGKENVKIYESKFTNLFFSVYDIEPELKEKTYLKLVCVGKDELIKGLHIIGLNADEIVQGFAVALKMNATKKDFDETIPIHPTAAEEFLTLQPWMK	soluble
MWFGEFGGQYVPETLIEPLKELEKAYKRFKDDEEFNRQLNYYLKTWAGRPTPLYYAKRLTEKIGGAKIYLKREDLVHGGAHKTNNAIGQALLAKFMGKTRLIAETGAGQHGVATAMAGALLGMKVDIYMGAEDVERQKMNVFRMKLLGANVIPVNSGSRTLKDAINEALRDWVATFEYTHYLIGSVVGPHPYPTIVRDFQSVIGREAKAQILEAEGQLPDVIVACVGGGSNAMGIFYPFVNDKKVKLVGVEAGGKGLESGKHSASLNAGQVGVFHGMLSYFLQDEEGQIKPTHSIAPGLDYPGVGPEHAYLKKIQRAEYVTVTDEEALKAFHELSRTEGIIPALESAHAVAYAMKLAKEMSRDEIIIVNLSGRGDKDLDIVLKVSGNV	soluble
MWFRNLLVYRLTQDLQLDADSLEKALGEKSARPCASQELTTYGFTAPFGKGPDAPLVHVSQDFFLISARKEERILPGSVVRDALKEKVDEIEAQQMRKVYKKERDQLKDEIVQTLLPRAFIRRSSTFAAIAPSLGLILVDSASAKKAEDLLSTLREALGSLPVRPLSVKVAPTATLTDWVKTQEAAGDFHVLDECELRDTHEDGGVVRCKRQDLTSEEIQLHLTAGKLVTQLSLAWSDKLSFVLDDKLAVKRLRFEDLLQEQAEKDGGEDALGQLDASFTLMMLTFAEFLPALFEALGGEEIPQGV	soluble
MWLSSEELSAKKTACHVRNVESNKEFADSDIVASFVHNRPKDLKNLTFERHGKGGRKKAPIFSVKGDISEHVVEVGADVNCLDEGFDFAVALVDKRTGEATYRPARFYSFESKFSEDIEKIFSDKKESSSEEYKNDFSIGAEKWAEKRRQLTSNFGSSKKIKMDEAAQRRTINQETLDEMRKTAFASNSNVKTEDGAADVKLENITMMNKAESSILPPAVQTELSRDIYPISLFLEDIEIDAIESIATELMEKKKKEKLEAGIPECVTLIMYNEKTKQRAAAYLLLSTMIEILTKMGKQRQLLRKDLSELKMPDILRQKVQAQFFNDSTNEKGYTGRGAERIRLNVTDYDRFIAHTLALALTLAPEHKVPITPFQQALSYQPSKLEKMFQALGADLIRLDVASAQTLRSLRAAILLKPPSLEQKGPRKIIRR	not soluble
MWPLLKNNVVRTGRRYAVFQPRRFTPRPQHDAFGTKDDVRGFTVFSHAACGASLMDPLSPSRWEVALFPSSPPSLKDSCHLCAWTFGLAGPCAAWLSTRRELVGGFSKIIYIQNSAECWSVRETKRCCRICRWRSTSSSTDLRSNPYPIRWCYCWTMFPPMYPVLLLTASPVPTPLEHHHHHH	not soluble
MWRELWRVVEKSDIIVQIVDARNPLLFRSKDLDDYVKEVDPAKQILLLVNKADLLKPEQQASWREYFEKENIKVIFWSAIDEVLDPIDEDAVETSNPSTSTHMFVTNKDELIAKFKELGHVSDEPSAKPVMVGMVGYPNVGKSSTINKLAGGKKVSVSATPGKTRHFQTIHIDSQLCLCDCPGLVMPSFSFGRSEMFLNGILPVDQMRDHFGPTSLLLSRVPVHVIEATYSIMLPEMQSPSAINLLNSLAFMRGFMASSGIPDCSRAARLMFKDVVSGKLIWAAAPPGVEQEEFDRISYPDKKTRDIGRVQMEKLAKLQLLEGDELKGSQFDSQHFVGSIGVAHVRDSKALPQTLGTVIPTAPTENNGKKHYKGKKDKLRRIYNE	not soluble
MWRVCARRAQNVAPWAGLEARWTALQEVPGTPRVTSRSGPAPVRRNSVTTGYGGVRALCGWTPSSGATPRNRLLLQLLGSPGRRYYSLPPHQKVPLPSLSPTMQAGTIARWEKKEGDKINEGDLIAEVETDKATVGFESLEECYMAKILVAEGTRDVPIGAIICITVGKPEDIEAFKNYTLDSSAAPTPQAAPAPTPAATASPPTPSAQAPGSSYPPHMQVLLPALSPTMTMGTVQRWEKKVGEKLSEGDLLAEIETDKATIGFEVQEEGYLAKILVPEGTRDVPLGTPLCIIVEKEADISAFADYRPTEVTDLKPQAPPPTPPPVAAVPPTPQPLAPTPSAPCPATPAGPKGRVFVSPLAKKLAVEKGIDLTQVKGTGPDGRITKKDIDSFVPSKVAPAPAAVVPPTGPGMAPVPTGVFTDIPISNIRRVIAQRLMQSKQTIPHYYLSINVNMGEVLLVRKELNKILEGRSKISVNDFIIKASALACLKVPEANSSWMDTVIRQNHVVDVSVAVSTPAGLITPIVFNAHIKGVETIANDVVSLATKAREGKLQPHEFQGGTFTISNLGMFGIKNFSAIINPPQACILAIGASEDKLVPADNEKGFDVASMMSVTLSCDHRVVDGAVGAQWLAEFRKYLEKPITMLL	soluble
MWRVVFDCEEAVRWLRQAKHTLESIRVDYEGGFYSWACFKANQAAEYSIKAVLRAAGLESFGHDLMALWRRARSLCQPLQEMEECIAVLNKLYLPPRYPDAWPGGAAPFENYTRRDAEEALECASRVYRAVEECLGEECEDS	soluble
MYDVTIIGAGVSSIFMAYSLAKSNKKVLILDKGKALEDRHCPLDEGKVCNCTTCDKYFGFGGLGKSEGKFNYTNGFGGELEKKVGKEGFLQLMAEVDEILCQFGGSSVSKYSTENSSLTKRAEACGLQMLTTEVRHLGTTLSSNIFQQLYEFLLTKIKIQFHIDVQHILKQEDHFTIDTNQGTVQTKQLVFATGRSGADWLKEMCSSLNISQEQTRVDLGIRVEMKEHQLRSILKDTFETKLSYQGEHFTATTYCMNPKGRIIRKYEEGLVMPDGQNFREQGTGTSNLNFTLFIPSYFPTLKEANVYASSIIKGINQGRDRIVIQRLEDLLKKQPTAENSMEHSRIQPTLQGDYGDLNQEIPQLYIEGLKEFLLRLEQFIQEPIDQHTLLYGIDGKFYAPTIKINNHFETSIHGLFLIGDCSGVTHSLSQAAASGLYVGKYLSDILEHHHHHH	soluble
MYEGTLSMAVQSLGQAVNYCKRFGPRLVATKMLYKLLPQAGFSVCRQIEEYLKHYYLPDVAYHKTEFCGKIQADAPIWVMWWQGEERMPDVVRLAVASMRRFAGRRPVMLITKDNYHDYAKRSVDFYRYVEHGAISLTHFSDYVRFDLLHKYGGFWLDATLLMTAPIPDFVNDLRLFSIKHGTIRPGEQWSPMWSRNWTAYCWGGCAGDPFFDFMLRFFERYHEREGSVMIDYFLIDRIISVAYQEFVDVRNTIDAIPVNNVDVLTSPIVNTASINHRSDDNGTFLHKLSWKEPPQPDCGNGQRSWFGQLLDQYGIRLEHHHHHH	not soluble
MYFSWLFLVFFSSRSLTGTPRSIDQRQLRAELSGTGTPTAPADSPALVPNCTQTRGGEDGEGCKQPRVDIKKFRKKKGAHKPQEPETLNFKFRQNLLSLKFLKERKELLVSII	not soluble
MYGISVFLGEEITNDTIIYIKKMKALGFDGIFTSLHIPEDDTSLYRQRLTDLGAIAKAEKMKIMVDISGEALKRAGFSFDELEPLIELGVTGLRMDYGITIEQMAHASHKIDIGLNASTITLEEVAELKAHQADFSRLEAWHNYYPRPETGIGTTFFNEKNRWLKELGLQVFTFVPGDGQTRGPIFAGLPTLEKHRGQNPFAAAVGLMADPYVDAVYIGDPTISERTMAQFGYYHQTNQFLLEVAPSESRYLKRILGTHTNRLDAARDVLRSELSRTSEMFRKDEIATIESEQTEARPVGTVTIDNEKYGRYMGEIQVTLVDLPKDEKVNTITRIIEKDQTILPLIKAGNQFTLVTEGTIENEFRKLNN	soluble
MYHLKKQRIMGAVKRNTLSVLFIIKKAKLLKNGEAPVCMRITVNKRVAEVMIKRSIPVDLWNQKKECSKGKDRVAIELNHYINTVRAKVLQIHRELEIDNKPITADIIKDCFYGRDKVQRSLQEVYKEHNEKCRALIGKEYTESTVIKFDTSINRLKEYIRSCYHRDDIMLAELDGQFIRDFDFWLKTEKHCQNNSALKHLKNLKKVVRIALANDWIKKDPFYGIHFKQEEVNVEFLSREELDILMNKEFAIKRLEQVRDIFVFCCFTALAFVDVQQLSREHLIKDNSGALWIRKARQKTNQMCNIPVLSIPQRILRKYEDNAECIKKGVLLPVISNQRMNAYLKEIADLCGITKRLTTHVARHTAATIVFLANDVSMENVSKILGHSNIRMTQHYAKVLDSSIMRDMVNVEKNFK	not soluble
